Source: PMC10922771

Columns and labels:
Experiment in all cases: FXase
[1] = molecular target: activated ET9 (ET9a; FIX-403 with p.Arg384Leu) (human) (UniProt P00740)
[2] = molecular target: activated FIX-403 (FIXa-403) (human) (UniProt P00740)
[3] = molecular target: activated human factor IX (hFIXa) (human) (UniProt P00740)
[4] = molecular target: activated human factor IX Padua (hFIXa-Padua, p.Arg384Leu) (human) (UniProt P00740)

Kd [1]: 0.26 nM | Kd [2]: 2.08 nM | Kd [3]: 7.8 nM | Kd [4]: 1.08 nM
Substance: activated factor VIII (FVIIIa), from Advate, recombinant full-length FVIII activated with thrombin (complex)
